Patent publication US20250177531A1 (FRED HUTCHINSON CANCER CENTER, published 2025)
Each block holds one binder with its values, some of them ahead of it.

Tests used:
[1] = target: KRAS G12V 7-16 10mer peptide … presented by HLA-A*11:01 (human); assay: cell-based or functional assay
[2] = target: KRAS G12V 8-16 9mer peptide … presented by HLA-A*11:01 (human); assay: cell-based or functional assay
[3] = target: T1, KRAS G12V (same sequence in NRAS G12V and HRAS G12V) peptide on HLA-A*11:01 (human); assay: stated without data
T1 peptide: VVGAVGVGK

[4] = target: RAB7B peptide … presented by HLA-A*11:01 (human); assay: cell-based or functional assay

EC50, CD137 surface expression assay (functional avidity), TCR 11N4A in primary human CD8+ T cells [1]: 18.8 nM
EC50, CD137 surface expression assay (functional avidity), TCR 11N4A in primary human CD8+ T cells [2]: 0.0595 nM
percent of T cells responding (CD137), peptide titration [2]: > 80%
B1: TCR 11N4A (TCR)
TCR alpha: QQKNDDQQVKQNSPSLSVQEGRISILNCDYTNSMFDYFLWYKKYPAEGPTFLISISSIKDKNEDGRFTVFLNKSAKHLSLHIVPSQPGDSAVYFCAASGVSGNTPLVFGKGTRLSVIANIQNPDPAVYQLRDSKSSDKSVCLFTDFDSQTNVSQSKDSDVYITDKCVLDMRSMDFKSNSAVAWSNKSDFACANAFNNSIIPEDTFFPSPESSCDVKLVEKSFETDTNLNFQNLSVIGFRILLLKVAGFNLLMTLRLWSS
TCR beta: GVTQTPRYLIKTRGQQVTLSCSPISGHRSVSWYQQTPGQGLQFLFEYFSETQRNKGNFPGRFSGRQFSNSRSEMNVSTLELGDSALYLCASSVGTVEQYFGPGTRLTVTEDLKNVFPPEVAVFEPSEAEISHTQKATLVCLATGFYPDHVELSWWVNGKEVHSGVCTDPQPLKEQPALNDSRYCLSSRLRVSATFWQNPRNHFRCQVQFYGLSENDEWTQDRAKPVTQIVSAEAWGRADCGFTSESYQQGVLSATILYEILLGKATLYAVLVSALVLMAMVKRKDSRG

binding result [3]: recognises
B2: TCR 11N6 (TCR, V domains shown)
Valpha: QQGEEDPQALSIQEGENATMNCSYKTSINNLQWYRQNSGRGLVHLILIRSNEREKHSGRLRVTLDTSKKSSSLLITASRAADTASYFCATDPMNTNAGKSTFGDGTTLTVKP
Vbeta: GVAQSPRYKIIEKRQSVAFWCNPISGHATLYWYQQILGQGPKLLIQFQNNGVVDDSQLPKDRFSAERLKGVDSTLKIQPAKLEDSAVYLCASSPYGGSVSYEQYFGPGTRLTVT

EC50, CD137 expression, sort-purified TCR 11N4A-transduced T cells, peptide titration [4]: ~35 µg/mL
B3: TCR 11N4A (TCR, V domains shown)
V domain 1: DQQVKQNSPSLSVQEGRISILNCDYTNSMFDYFLWYKKYPAEGPTFLISISSIKDKNEDGRFTVFLNKSAKHLSLHIVPSQPGDSAVYFCAASGVSGNTPLVFGKGTRLSVIA
V domain 2: GVTQTPRYLIKTRGQQVTLSCSPISGHRSVSWYQQTPGQGLQFLFEYFSETQRNKGNFPGRFSGRQFSNSRSEMNVSTLELGDSALYLCASSVGTVEQYFGPGTRLTVTE
